In this experiment the target is T1, human TLR7-Flag-His×6 (human TLR7 variant 2), expressed in Ba/F3 cells together with human Unc93B1-HA×2 (human, UniProt Q9NYK1 27-1049).
T1 construct: Cells were permeabilised with 0.1% saponin before staining; also called hTLR7-Flag-His×6; not shown: Flag-His×6 tag added to the C-terminus
T1 sequence: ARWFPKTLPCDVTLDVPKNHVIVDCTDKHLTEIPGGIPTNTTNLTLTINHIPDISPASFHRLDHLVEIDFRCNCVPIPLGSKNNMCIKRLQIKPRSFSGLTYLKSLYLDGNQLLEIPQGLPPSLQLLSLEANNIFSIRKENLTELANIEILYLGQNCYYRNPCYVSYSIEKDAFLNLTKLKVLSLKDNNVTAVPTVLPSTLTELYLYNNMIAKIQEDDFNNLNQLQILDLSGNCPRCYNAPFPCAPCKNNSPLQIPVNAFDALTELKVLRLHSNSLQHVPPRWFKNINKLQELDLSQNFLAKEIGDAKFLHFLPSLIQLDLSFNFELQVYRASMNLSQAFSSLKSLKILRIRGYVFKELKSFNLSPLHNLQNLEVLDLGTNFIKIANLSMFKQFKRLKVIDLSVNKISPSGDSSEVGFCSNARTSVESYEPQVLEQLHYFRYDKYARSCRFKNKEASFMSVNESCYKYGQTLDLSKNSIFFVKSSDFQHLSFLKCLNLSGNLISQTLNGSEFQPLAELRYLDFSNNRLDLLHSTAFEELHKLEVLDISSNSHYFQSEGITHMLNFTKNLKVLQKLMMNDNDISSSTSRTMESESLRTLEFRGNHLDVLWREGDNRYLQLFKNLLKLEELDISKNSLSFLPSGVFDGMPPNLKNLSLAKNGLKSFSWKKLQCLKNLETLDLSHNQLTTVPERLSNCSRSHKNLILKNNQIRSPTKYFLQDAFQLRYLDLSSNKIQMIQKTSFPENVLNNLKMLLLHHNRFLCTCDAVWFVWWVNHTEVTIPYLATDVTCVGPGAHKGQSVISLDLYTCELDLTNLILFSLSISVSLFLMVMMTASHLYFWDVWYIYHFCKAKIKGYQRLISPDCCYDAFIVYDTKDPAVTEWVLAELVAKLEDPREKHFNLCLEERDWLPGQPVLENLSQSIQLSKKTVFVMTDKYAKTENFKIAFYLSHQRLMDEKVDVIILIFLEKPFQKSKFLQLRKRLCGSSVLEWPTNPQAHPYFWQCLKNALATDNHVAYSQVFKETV
Kind of experiment: flow cytometry (MFI), antibody dilution series on saponin-permeabilised Ba/F3 cells expressing human TLR7-Flag-His×6/hUnc93B1-HA×2. The protocol:
A Ba/F3 cell line expressing human TLR7-Flag-His×6/hUnc93B1-HA×2 was subjected to membrane permeation with 0.1% Saponin and stained using the dilution series of chimeric AT01 antibody, NB7 antibody, and FAN2 antibody at the antibody concentrations obtained in Example 4, and the secondary antibody, Goat anti-human IgG Fc-PE (eBioscience). The binding activity of each antibody was evaluated by comparing the MFI based on flow cytometry analysis.
Background: A flow cytometer gives signals particle by particle.

B1: cFAN2 antibody (antibody, human IgG1, V domains shown)
VH: QVQLKESGPGLVAPSQSLSITCTVSGFSLTGYGVNWVRQPPGKGLEWLGMIWGDGSTDYNSALKSRLSIRKDNSKSQVFLKMNSLQTDDTARYYCARDKGYDGYYYAMDYWGQGTSVTVSS
VL: DIQMTQSPASLSASVGETVTITCRASENIYSYLAWYQQKQGKSPQLLVYDAKTLAEGVPSRFSGSGSGTQFSLKINSLQPEDFGSYYCQHHYGIPYTFGGGTKLEIKR
notes: Mouse variable regions on human IgG1 / human kappa constant regions; also called chimeric FAN2 antibody; FAN2 chimeric anti-human TLR7 antibody
In the case of B1, the binding result is given as “binds”.

B2: cNB7 antibody (antibody, human IgG1, V domains shown)
VH: DVQLQESGPGLVKPSQSLSLTCTVTGYSITSDYAWNWIRQFPGNKLEWMGHISYRGNTNYNPSLKSRISITRDTSKNQFFLQLNSVTTEDTATYYCASWNYYGYVDYAMDYWGQGTSVTVSS
VL: DIQMTQTPSSLSASLGDRVTISCRASQDISNYLNWYQQKPDGTVKLLIYYTSRLHSGVPSRFSGSGSGTDYSLTINNLEQEDIATYFCQQGDTFPTFGGGTKLEIKR
notes: Mouse variable regions on human IgG1 / human kappa constant regions; also called chimeric NB7 antibody; NB7 chimeric anti-human TLR7 antibody
For the molecule B2, the binding result is “binds”.

B3: cAT01 antibody (antibody, human IgG1, V domains shown)
VH: QVQLQQPGAELVKPGASVNLSCKASGYTFTNNWLHWVKQRPGRGLEWIGDIYPSNGRTNYNEQFKTKATLTVDKSSSTAYMQLSSLTSEDSAVYFCARERGYFDYWGQGTALTVSS
VL: DIQMTQSPSSLSTSLGGKVTITCKASQDINKYIAWYQHKPGKGPRLLIHYTSTLQPGIPSRFSGSGSGRDYSFSISNLEPEDIATYYCLQYDYLLTFGAGTKLELKR
notes: Mouse variable regions on human IgG1 / human kappa constant regions; also called chimeric AT01 antibody; AT01 chimeric anti-human TLR7 antibody
For the molecule B3, the binding result is on record as “binds”.
